# Results as given in paper PMC12255303, “Regulation of a phage defence island by RptR, a novel repressor that controls restriction–modification systems in diverse bacteria”.
# Substitutions are numbered along the chain they refer to. In names and notes the source's numbering stands.
# B1: DR1/2/3 (WT) (dsDNA)
# DNA 1: AGTTCTTGAACCTGATACCACATTTAGCTAATTTAGCTAATTTAGCTAACTTATCCATTA
# DNA 2: TAATGGATAAGTTAGCTAAATTAGCTAAATTAGCTAAATGTGGTATCAGGTTCAAGAACT
# B2: DR1/2/3 C6G (labelled C5G in Fig S4) (dsDNA)
# DNA 1: B1 DNA 1 with C28G, C37G, C46G
# DNA 2: B1 DNA 2 with G15C, G24C, G33C
# B3: DR1/r/3 (dsDNA)
# DNA 1: B1 DNA 1 with T32G, T33A, T34G, C37A, T38G, A40G
# DNA 2: B1 DNA 2 with T21C, A23C, G24T, A27C, A28T, A29C
# B4: DRs/2/3 (dsDNA)
# DNA 1: B1 DNA 1 with T25G, G27A, C28T, T29C, A30T
# DNA 2: B1 DNA 2 with T31A, A32G, G33A, C34T, A36C
# B5: DR1/2/s (WT control) (dsDNA)
# DNA 1: B1 DNA 1 with T43G, G45A, C46T, T47C, A48T
# DNA 2: B1 DNA 2 with T13A, A14G, G15A, C16T, A18C
# B6: DR1/s/3 (dsDNA)
# DNA 1: B1 DNA 1 with T34G, G36A, C37T, T38C, A39T
# DNA 2: B1 DNA 2 with T22A, A23G, G24A, C25T, A27C
# B7: DRs/s/s (dsDNA)
# DNA 1: AGTTCTTGAACCTGATACCACATTGAATCTATTGAATCTATTGAATCTACTTATCCATTA
# DNA 2: TAATGGATAAGTAGATTCAATAGATTCAATAGATTCAATGTGGTATCAGGTTCAAGAACT
# Columns and labels:
# [1] = target: RptR (RMS-proximal transcriptional regulator) with an N-terminal His6 tag and 3C protease cleavage site (Escherichia coli O127:H6 E2348/69 (EPEC)); test: SEC; analytical SEC on Superdex 75 Increase 10/300 GL, calibrated with five low-MW standards; MW of His6-3C-RptR interpolated from elution volumes of the purification (SEC buffer 25 mM Tris-HCl pH 8, 200 mM KCl)
# RptR (His6-3C-RptR) [2] = target: T1, RptR (His6-3C-RptR) (Escherichia coli O127:H6 E2348/69 (EPEC), UniProt B7UP23 1-79); test: EMSA; per RptR dimer; Hill coefficient 3.4; EMSA: 25 mM Tris-HCl pH 8, 150 mM NaCl, 5 mM MgCl2, 0.05 uM dsDNA, 37 C 30 min then 4 C; 8% TBE-PAGE at 4 C, SYBR Gold; conditions: protein: recombinant; tags: N-terminal His6 and 3C protease site (cleavage not described); chain copies: 2; blunt
# T1 sequence: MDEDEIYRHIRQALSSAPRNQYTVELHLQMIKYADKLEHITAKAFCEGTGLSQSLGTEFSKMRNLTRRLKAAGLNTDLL
# RptR (His6-3C-RptR) [3] = target: T1, RptR (His6-3C-RptR); test: EMSA; binding abolished; conditions: protein: recombinant; tags: N-terminal His6 and 3C protease site (cleavage not described); chain copies: 2; blunt
# RptR (His6-3C-RptR) [4] = target: T1, RptR (His6-3C-RptR); test: EMSA; same shift as DR1/s/3; conditions: protein: recombinant; tags: N-terminal His6 and 3C protease site (cleavage not described); chain copies: 2; blunt
# RptR (His6-3C-RptR) [5] = target: T1, RptR (His6-3C-RptR); test: EMSA; single shift; conditions: protein: recombinant; tags: N-terminal His6 and 3C protease site (cleavage not described); chain copies: 2; blunt
# RptR (His6-3C-RptR) [6] = target: T1, RptR (His6-3C-RptR); test: EMSA; higher shift only; conditions: protein: recombinant; tags: N-terminal His6 and 3C protease site (cleavage not described); chain copies: 2; blunt
# RptR (His6-3C-RptR) [7] = target: T1, RptR (His6-3C-RptR); test: EMSA; up to 1.2 uM RptR; EMSA: 25 mM Tris-HCl pH 8, 150 mM NaCl, 5 mM MgCl2, 0.05 uM dsDNA, 37 C 30 min then 4 C; 8% TBE-PAGE at 4 C, SYBR Gold; conditions: protein: recombinant; tags: N-terminal His6 and 3C protease site (cleavage not described); chain copies: 2; blunt
molecule,measurement,setting,value
RptR (RMS-proximal transcriptional regulator) with an N-terminal His6 tag and 3C protease cleavage site (natural protein),stoichiometry N,[1],2
B1,Kd,RptR (His6-3C-RptR) [2],185 nM
B2,binding result,RptR (His6-3C-RptR) [3],no binding
B3,binding result,RptR (His6-3C-RptR) [4],binds
B4,binding result,RptR (His6-3C-RptR) [5],binds
B5,binding result,RptR (His6-3C-RptR) [5],binds
B6,binding result,RptR (His6-3C-RptR) [6],binds
B7,binding result,RptR (His6-3C-RptR) [7],no binding
